Bounds are passed on as bounds.

Experimental findings from patent US20150182631A1, “SYSTEM FOR […]-BASED ACTIVE INGREDIENTS” (Centre National De La Recherche Scientifique-CNRS, priority 2012, published 2015) are described below.

A short description of data set [1]: Chemical dissociation by size exclusion chromatography at acidic pH. In kind it is physicochemical. As for the experimental part:
The size exclusion chromatography experiments were carried out on a GE-Healthcare Superose 12 PC 3.2/30 column. The columns are pre-balanced in the buffer tested, namely phosphate buffer 50 mM, 100 mM NaCl, pH7.2 or pH 4.4 in the absence or in the presence of 0.003% of SDS. The flow rate is 0.5 mL/min. The BSA and the RNase A are used as a size marker.
The inventors studied the behaviour of XCL in denaturing chemical conditions close to those encountered in the lysosomes. The analysis was carried out via exclusion chromatography with an acidic pH (pH 4.4). It appears that the elution peak of XCL in these denaturing conditions is displaced to greater elution volumes showing the appearance of a smaller size. When 0.003% SDS is added, the elution peak is displaced to the elution volume of the RNAse A which has a molecular weight close to the XCL monomer.
The behaviour of the oxidised mutant A38C was also analysed. […] The addition of the disulphide bridge therefore increases the stability of the protein assembly.
In general terms: In gel filtration, larger molecules generally elute earlier.

Data set [2] in a line: Thermal dissociation by NMR DOSY. In kind it is physicochemical. The protocol:
The thermal dissociation was also followed by DOSY experiments (Diffusion Ordered SpectrometrY). The ratio of the hydrodynamic radius of XCL and of the dioxane were measured according to the temperature (FIG. 9).
If the tetramer is dissociated by increasing the temperature, a decrease in this ratio is expected and therefore of the hydrodynamic radius of XCL. […] After 50° C., the protein sample precipitates out as already described in the fluorescence experiments with tryptophan.

A short description of data set [3]: Confinement of fluorescein in the lectin cavity. As to conditions: 4 days at ambient temperature, free fluorescein eliminated again. The protocol: The confinement experiments are carried out by incubating the wild-type protein (XCL) or the mutants (A38C) with the molecule to be tested. In order to carry out the control experiments with the mutant A38C, an oxidation step is carried out in the presence of GSSG in a phosphate buffer 50 mM, 100 mM NaCl, pH 7.2, OVN. The GSSG is then eliminated on a PD-10 sephadex G-25M column (GE Healthcare) pre-balanced in a phosphate buffer 50 mM, 100 mM NaCl, pH 8.5. The eluate is concentred at 1 ml on Vivaspin 15R 30,000 MWCO (Sartorius stedim). A batch of A38C is reduced to TCEP (under argon) with adding of NaOH for a final pH of 8.5. […] The quantity of fluorescein is measured by using an absorption coefficient of e511 nm=75,000 cm^−1 M^−1. The concentrations of XCL and of A38C after the confinement are calculated with e278 nm=[…]. The percentage of confinement is calculated by forming the ratio of the fluorescein/protein concentrations.
In the case with XCL, the inventors incubated the protein (15 μM) with fluorescein (10 mM) and then separated the protein from the non-confined molecules of fluorescein by two successive gel filtration columns. Beforehand, the inventors verified that if these two columns on the fluorescein solution are carried out at 10 mM, no residual free fluorescein is detected. […]

Data set [4] in a line: FRET kinetics of subunit exchange (tetramer dissociation). In kind it is physicochemical. The protocol: The speed of the exchange of subunits was measured by the same technique. The reaction is initiated by mixing the same volume of XCL-RITC (1 μM) and of XCL-FITC (1 μM) at 25° C. in 50 mM of phosphate buffer, 100 mM NaCl, pH 8.5. The excitation is carried out at 468 nm and the fluorescence emission at 580 nm is recorded every 0.5 seconds. The fluorescence intensity is normalised by using the equation: […]
where F(t) represents the experimental fluorescence in the time considered, F0 the value of the initial fluorescence, and F∞ the value of the final fluorescence when the state of equilibrium is reached. The kinetic data was modelled with the GOSA software (Czaplicki et al. (2006)). The best model was obtained for a double exponential of equation:
F=1−[a×e^−k^1^t+(1−a)×e^−k^2^t]
where: a represents the proportion of molecules at slow dissociation, k1 the kinetic constant of the slow dissociation and k2 the kinetic constant of the fast dissociation.
The dissociation kinetic of the tetramer was studied by mixing XCL-FITC and XCL-RITC and by measuring the fluorescence emission intensity at 580 nm as a function of time (FIG. 6).
The increase in the fluorescence intensity and therefore the effectiveness of the transfer between the fluorescein and the rhodamine are the result of two successive phenomena: firstly the dissociation of the tetramers into dimers and secondly their reassociation. Considering the shape of the curve (FIG. 6), no lag time is observed at the beginning of the kinetics which implies that the speed of reassociation is much faster than the speed of dissociation. It can therefore be considered that the speed of reassociation is negligible in this case. The kinetic data obtained was modelled using the GOSA software. The most suitable model for describing the phenomenon observed is a double exponential growth with two dissociation reactions that have difference speeds: […]

Setting [5] is: 25° C., pH 8.5, double exponential model.

B1: XCL: Xerocomus chrysenteron lectin, fungal sporocarp lectin forming a tetramer with central cavity, SEQ ID NO: 1 (protein)
chain: MSYSITLRVYQTNRDRGYFSIVEKTVWHFANGGTWSEANGAHTLTQGGSGTSGVLRFLSTKGERITVAVGVHNYKRWCDVVTGLKPDETALVINPQYYNNGGRDYVREKQLAEYSVTSAIGTKVEVVYTVAEGNNLEANVIFS
modifications: Xerocomus chrysenteron
Consider B1, for which the “oligomeric state by elution volume at pH 4.4 with SDS” value in data set [1] (pH 4.4, 0.003% SDS) is reported as “these dimers are dissociated into monomers”. For the same molecule, the “oligomeric state by elution volume at pH 4.4” value in data set [1] (pH 4.4, no SDS) was “dissociation of the tetramer into a dimer”. Also, the “temperature after which the protein sample precipitates out” value in data set [2] (DOSY) was > 50 °C. Also, the “hydrodynamic radius versus temperature” value in data set [2] (ratio of hydrodynamic radius of XCL and dioxane) is “no transition in the hydrodynamic radius is observed”. For the same molecule, the “confinement rate after incubation” value in data set [3] is “remained unchanged”. In data set [4] (setting [5]), the “a: proportion of molecules engaged in the slow reaction” value was 0.39, the “k1: kinetic constant of the slowest dissociation reaction” value came to 0.72 min⁻¹ and the “k2: kinetic constant of the fastest dissociation reaction” value turned out to be 2.52 min⁻¹. Besides, the “time until balance of fluorescence intensity at 580 nm is reached” value in data set [4] (mixing XCL-FITC and XCL-RITC) is “more than 300 seconds”.
